According to EP0769025B1:

Tests used:
[1] = target: monoclonal antibody AF-28; experiment: competition ELISA, competitor against plate-coated 32-mer for AF-28
[2] = target: monoclonal antibody AF-28; experiment: competition ELISA, 32-mer as both coating (25 pmoles/ml, Figure 6b) and standard antigen

Row | Binder | times less competitive than the 32-mer [1] [times] | IC50 [2] [nM]
1 | FGVGGEEDI [… 9-mer] | 230 | –
2 | FFGVGGEEDITVQTVTWPDMELPLPRNITEGE [… (FFGVG...EGE 32-mer) synthetic peptide] | – | 16
